Key:
[1] = molecular target: GFP-mRev1 (not stated (label mRev1)) (UniProt Q920Q2); assay: co-IP
[2] = molecular target: GFP-Polη (UniProt Q9Y253); assay: co-IP

For “PCNA-Ub (C-terminal fusion of ubiquitin to PCNA-K164R) (from UniProt P12004 1-261; P0CG48 1-76)”, the PCNA-Ub:PCNA precipitation ratio [1] was 8.5 and the PCNA-Ub:PCNA precipitation ratio [2] was 3.5.
